The source of these data is patent US20210292393A1.

Conditions in all cases: remark: other sources report otherwise
The target in experiment [1] is SARS-CoV-2 spike protein (SARS-CoV-2), P0DTC2.
Experiment [2] concerns the target SARS-CoV-2 full length spike protein (wild type) (SARS-CoV-2), P0DTC2.
For experiment [3], the target named is SARS-CoV-2 full length spike protein, wild type, expressed on the surface of CHO cells (SARS-CoV-2), P0DTC2.
Experiment [4] deals with SARS-CoV-2 spike protein (SARS-CoV-2), P0DTC2. The experiment can be described thus: HT-SPR, Carterra LSA; mAb coupled to chip, antigen injected; 1:1 fit.
Experiment [5] addresses SARS-CoV-2 spike (S) protein (SARS-CoV-2), P0DTC2.

Where “and” joins values, the source holds several entries; their conditions need not be identical. Identical values can stand only once. Like-named read-outs stand apart in the source and are kept apart here.

B1: antibody 436 (antibody, V domains shown)
VH: QVQVVESGGGVVQPGRSLRLSCAASGFTFSSYAMHWVRQAPGKGLEWVAVISYDGNNEYYVDPVKGRFTISRDNSKNTLYLQMNSLRAEDTALYYCATSREAIVVGGILDYWGQGTLVTVSS
VL: DIQMTQSPSSLSASVGDRVTITCQASHDINNFLNWYQQKPGQAPKLLIYDASNLETGVPSRFSGSGSGTDFTFTISSLHPEDVATYYCQQYDGLPRYVTFGQGTKLEIR
Take B1: in experiment [1], the dissociation constant (Kd) – broadly, the equilibrium constant for the complex coming apart – was 19.4 nM; the dissociation rate constant (koff) (commonly a measure of how fast the partners let go of each other) amounted to 0.000352 s⁻¹; the kon (commonly a measure of how fast the partners come together) is 18200 M⁻¹ s⁻¹.

B2: antibody 267 (antibody, V domains shown)
VH: EVHLVQSGAEMKKPGATVKISCKVSGNTFIDHYIQWVQQAPGKGFEWMGLVDPEDGETIYAEKFQGRVTITADTSRDTAYMELSSLKSEDTAVYYCGTHGDYLDYWGQGTLVTVSS
VL: FYELTQPSSVSVSPGQTALITCSGDVVAKKYARWFQQKAGQAPVLVIYKDTERPSGIPERISGSSSGTTVTLTISGAQVEDEADYYCYSATDNNLVFGGGTKVTVL
B2: the binding signal, bead assay (fold over isotype) in experiment [2] came to 312.

B3: antibody 495 (antibody, V domains shown)
VH: QITLKESGPTLVKPTQTLTLTCTFSGFSLSTSGVGVGWIRQPPGKALEWLALIYWDDDKRYSPSLKSRLTITKDTSKNQVVLIMTNMDPVDTATYYCAHRDSSSWFDLDAFDIWGQGTMVIVSS
VL: QSVLTQPPSVSEAPRQRVTISCSGSSSNIGNNAVNWYQQLPGKAPKLLIYYDDLLPSGVSDRFSGSKSGTSASLAISGLQSEDEADYYCAAWDDRLNGPVFGGGTKLTVL
With B3, the median fluorescence fold over isotype control (fold over isotype) in experiment [3] is 1.23 and 0.83. Moreover, in experiment [4], the equilibrium dissociation constant (Kd) amounted to 0.0718 nM, the off-rate (koff) turned out to be 1.55e-05 s⁻¹ and the association rate constant (kon) worked out at 216000 M⁻¹ s⁻¹.

B4: antibody 490 (antibody, V domains shown)
VH: QVQLQESGPGLVKPSGTLSLTCAVSGGSISSSNWWSWVRQPPGKGLEWIGELYHSGSTNYNPSLKSRVTISVDKSKNQFSLKLSSVTAADTAVYYCARVGPYYYDSSGYYNYFDYWGPGTLVTVSS
VL: EIVLTQSPATLSLSPGERATLSCRASQSVSSYLAWYQQKPGQAPRLLIYDASNRATGIPARFSGSGSGTDFTLTISSLEPEDFAVYYCQQRSNWPPGITFGQGTRLEIK
With B4, the median fluorescence fold over isotype control (fold over isotype) in experiment [3] is 1.07 and 1.28 and 1.08.

B5: antibody 259 (antibody, V domains shown)
VH: EVQLVQSGAEVKKPGATVKISCKVSGYTFTDYYMHWVQQAPGKGLEWMGLVDPEDGETIYAEKFQGRVTITADTSTDTAYMELSSLRSEDTAVYYCATDLLSWKLYCSGGSCPQMDVWGQGTTVTVSS
VL: DIQMTQSPSSLSASVGDRVTITCRASQGIRNDLGWYQQKPGKAPKRLIYAASSLQSGVPSRFSGSGSGTEFTLTISSLQPEDFATYYCLQHNSYPQTFGQGTKLEIK
The molecule B5 gave a binding signal, bead assay (fold over isotype) in experiment [2] of 275.

B6: antibody 524 (antibody, V domains shown)
VH: QVQLVESGGGVVQPGRSLRLSCAASGFTFSSYAMHWVRQAPGKGLEWVAVISYDGSNKYYADSVKGRFTISRDNSKNTLYLQMNSLRAEDTAVYYCAKAGGGSYYRGFDYWGQGTLVTVSS
VL: QSVLTQPPSVSAAPGQKVTISCSGSNSNIGNNYVSWYQQLPGSAPKLLIYDNDKRPSGIPDRFSGSKSGTSATLGITGLQTGDEADYYCGAWDSSLTALVFGGGTKLTVL
In the case of B6, the median fluorescence fold over isotype control (fold over isotype) in experiment [3] was 0.58 and 0.55. Also, in experiment [4], the equilibrium dissociation constant (Kd) was determined as 34.6 nM, the dissociation rate constant (koff) is 0.00272 s⁻¹ and the kon turned out to be 78600 M⁻¹ s⁻¹.

B7: antibody 374 (antibody, V domains shown)
VH: QVQLQESGPGLVKPSGTLSLTCAVSGGSISSSKWWSWVRQPPGKGLEWIGEIYHSGSTNYNPSLKSRVTISVDKSKNQFSLKLSSVTAADTAVYYCARRELGEGTFTYWGQGTLVTVSS
VL: not shown
In experiment [5], B7 returned a dissociation constant (Kd) of 1.58 nM, a koff of 7.86e-05 s⁻¹ and a kon of 49600 M⁻¹ s⁻¹.

B8: antibody 521 (antibody, V domains shown)
VH: QVQLVESGGGVVQPGRSLRLSCAASGFTFSSYGMHWVRQAPGKGLEWVAVIWYDGSNKYYADSVKGRFTISRDNSKNTLYLQMNSLRAEDTAVYYCAREGNDYGDYGEWELLGYFDYWGQGTLVTVSS
VL: SYELTQPPSVSVSPGQTARITCSGDALPKKYAYWYQQKSGQAPVLVIYEDSKRPSGIPERFSGSSSGTMATLTISGAQVEDEADYYCYSTDSSGNHRRVFGGGTKLTVL
As to B8, the median fluorescence fold over isotype control (fold over isotype) in experiment [3] was 2.42 and 0.86. Further, in experiment [4], the Kd turned out to be 9.9 nM, the off-rate constant (koff) is 0.000299 s⁻¹ and the kon was 30200 M⁻¹ s⁻¹.

B9: antibody 493 (antibody, V domains shown)
VH: EVQLVESGGGLIQPGRSLRLSCAASGFTVSITYMSWVRQAPGKGLEWVSLIYSGGSSYYADSVKGRFTISRDNSKNTLYLQMNSLRAEDTAVYYCATTMVRGVIISYYYGMDVWGQGTTVTVSS
VL: QSALTQPASVSGSPGQSITISCTGTSSDVGGYNYVSWYQQHPGKAPKLMIYEVSNRPSGVSNRFSGSKSGNTASLTISGLQAEDEADYYCSSYTSSSTLVFGGGTKLTVL
With B9, the median fluorescence fold over isotype control (fold over isotype) in experiment [3] is 1.26 and 1.1. In experiment [4], this molecule registered a Kd of less than 0.133 nM and an off-rate (koff) of less than 1e-05 s⁻¹.

B10: antibody 382 (antibody, V domains shown)
VH: QVQLVESGGGVVQPGRSLRLSCAASGFTFSNYGMHWVRQAPGKGLEWMTVISFDGRNKYYADSVKGRFTISRDNSKNTLFLQMNSLTTEDTALYFCASGRRPRYSSGWSFDYWGQGTLVTVSS
VL: DIQMTQSPSSLSASVGDRVTITCQASQDIGNYLNWYQQKLGKAPNLLIYDASNLETGVPSRFSGSGSGTDFTFTINSLQPEDTATYYCQQYDDPSITFGQGTRLEIK
In experiment [5], B10 came in with a Kd of 11.2 nM, an off-rate constant (koff) of 0.00134 s⁻¹ and an association rate constant (kon) of 120000 M⁻¹ s⁻¹.

B11: antibody 383 (antibody, V domains shown)
VH: EVQLVESGGGLVQPGGSLRLSCAASGFTFSSYDMHWVRQATGKGLEWVSTIGTAGDTYYPGSVKGRFTISRENAKNSLYLQMNSLRAGDTAVYYCARVAYSSSFVYWYFDLWGRGTLVTVSS
VL: DIQMTQSPSSLSASIGDRVTITCRASQSISSYLNWYQQKPGKAPNLLIYAASSLQSGVPSRFSGSGSGTDFTLTISSLQPEDFATYYCQQSYTTPLYTFGQGTKLEIK
With B11, in experiment [5], the Kd stood at 0.772 nM, the koff is 7.09e-05 s⁻¹ and the kon was determined as 91800 M⁻¹ s⁻¹.

B12: antibody 464 (antibody, V domains shown)
VH: QVQLVQSGAEVKKPGASVKVSCKVSGYTLTELSMHWVRQAPGKGLEWMGGFDPEDGETIYAQKFQGRVTMTEDTSTDTAYMELSSLRSEDTAVYYCATARAFGVANWFDPWGQGTLVTVSS
VL: QSVLTQPPSASGTPGQRVTISCSGSSSNIGSNYVYWYQQLPGTAPKLLIYRNNQRPSGVPDRFSGSKSGTSASLAISGLRSEDEADYYCAAWDDSLSGLYVFGTGTKVTVL
Turning to B12, in experiment [1], the Kd came to 4.58 nM, the dissociation rate constant (koff) is 0.000512 s⁻¹ and the kon came out at 112000 M⁻¹ s⁻¹.

B13: antibody 499 (antibody, V domains shown)
VH: EVQLVESGGGLVKPGGSLRLSCAASGFTFSSYSMNWVRQAPGKGLEWVSSISSSSSYIYYADSVKGRFTISRDNAKNSLYLQMNSLRAEDTAVYYCARAPAGIVVGPDYWGQGTLVTVSS
VL: NFMLTQPHSVSESPGKTVTISCTGSSGSIASNYVQWYQQRPGSAPTTVIFEDNQRPSGVPDRFSGSIDSSSNSASLTISGLKTEDEADYYCQSYHSSNPHVVFGGGTKLTVL
Turning to B13, the median fluorescence fold over isotype control (fold over isotype) in experiment [3] is 1.35 and 0.9. In experiment [4], the dissociation constant Kd was determined as 0.297 nM, the off-rate constant (koff) amounted to 1.88e-05 s⁻¹ and the kon is 63300 M⁻¹ s⁻¹.
